This note sets out measurements from paper PMC5372742, “Protection of the Queuosine Biosynthesis Enzyme QueF from Irreversible Oxidation by a Conserved Intramolecular Disulfide” (Biomolecules, 2017).

Substrate in the data set: N#Cc1c[nH]c2nc(N)[nH]c(=O)c12
Kind of data set: steady-state kinetics, fluorescence assay of product NADP+. The format is biochemical, Bacillus subtilis. As to conditions: co-substrate NADPH.

B1: B. subtilis QueF (Bacillus subtilis subsp. subtilis str. 168; E98Q) (protein)
chain: MTTRKESELEGVTLLGNQGTNYLFEYAPDVLESFPNKHVNRDYFVKFNCPEFTSLCPKTGQPDFATIYISYIPDEKMVESKSLKLYLFSFRNHGDFHQDCMNIIMNDLIELMDPRYIEVWGKFTPRGGISIDPYTNYGKPGTKYEKMAEYRMMNHDLYPETIDNR
notes: queF gene in pET-30Xa, expressed in E. coli BL21(DE3); ~160 amino acids, single T-fold domain, homodecamer; active sites at intersubunit interfaces
For the protein B1, the Km was determined as 67 µM and the kcat was determined as 0.0006 s⁻¹.

By Km is commonly meant the substrate concentration at which the rate is half of its maximum. One may read the kcat as the number of substrate molecules converted per active site and unit of time at saturation.
